The values below come from the DeepSol protein solubility set.

This data set in a line: soluble on expression in E. coli; label from the status in PepcDB or PDB records.
In the case of “MLAAKNILNRSSLSSSFRIATRLQSTKVQGSVIGIDLGTTNSAVAIMEGKVPKIIENAEGSRTTPSVVAFTKEGERLVGIPAKRQAVVNPENTLFATKRLIGRRFEDAEVQRDIKQVPYKIVKHSNGDAWVEARGQTYSPAQIGGFVLNKMKETAEAYLGKPVKNAVVTVPAYFNDSQRQATKDAGQIVGLNVLRVVNEPTAAALAYGLEKSDSKVVAVFDLGGGTFDISILDIDNGVFEVKSTNGDTHLGGEDFDIYLLREIVSRFKTETGIDLENDRMAIQRIREAAEKAKIELSSTVSTEINLPFITADASGPKHINMKFSRAQFETLTAPLVKRTVDPVKKALKDAGLSTSDISEVLLVGGMSRMPKVVETVKSLFGKDPSKAVNPDEAVAIGAAVQGAVLSGEVTDVLLLDVTPLSLGIETLGGVFTRLIPRNTTIPTKKSQIFSTAAAGQTSVEIRVFQGERELVRDNKLIGNFTLAGIPPAPKGVPQIEVTFDIDADGIINVSARDKATNKDSSITVAGSSGLSENEIEQMVNDAEKFKSQDEARKQAIETANKADQLANDTENSLKEFEGKVDKAEAQKVRDQITSLKELVARVQGGEEVNAEELKTKTEELQTSSMKLFEQLYKNDSNNNNNNNGNNAESGETKQ”, the “soluble on expression in E. coli” value is “not soluble”.
For “MEKREFPVSDRIFPEVSIPYGDKSTKAMQITCACCGAVAYFPHQTGVNRKPPIAATQHFQNKGWVVGGNPRKDFCPIHAAPAKRKGQKAMVDTVATIADKPREMSREDRRIINDKLDEVYAKDAYKSPWTDSAVAKDLGVPRDWVAQVRDQFFGPAGSNPLYDEFLKETKLVEGAFLACEEATARAEKAAADQRRAHGDLCKAMDSYRVLARKVEREISR”, the “soluble on expression in E. coli” value is listed as “not soluble”.
In the case of “MRKKSSSNKEETALHPPPENFETATAELEQIVAGMETGQMSLEDALSAYKRGVELLQYCQNILKNSQQQIKILEADMLKHFSPAEHDAS”, the “soluble on expression in E. coli” value was “not soluble”.
The same measure for “GHMRRELAIEFSRVTESAALAGYKWLGRGDKNTADGAAVNAMRIMLNQVNIDGTIVIGEGEIDEAPMLYIGEKVGTGRGDAVDIAVDPIEGTRMTAMGQANALAVLAVGDKGCFLNAPDMYMEKLIVGPGAKGTIDLNLPLADNLRNVAAALGKPLSELTVTILAKPRHDAVIAEMQQLGVRVFAIPDGDVAASILTCMPDSEVDVLYGIGGAPEGVVSAAVIRALDGDMNGRLLARHDVKGDNEENRRIGEQELARCKAMGIEAGKVLRLGDMARSDNVIFSATGITKGDLLEGISRKGNIATTETLLIRGKSRTIRRIQSIHYLDRKDPEMQVHIL”: “soluble”; for “MWNETWNEITNELIQLSREPESEIPRITAEQRAYLKLVRPAAFVEGIAVLRVPHSRAKETIETHLGQAITSVLSRRMGRPFTVAVTVDPTLDVIQDLPHDVPEQHIVQHHVPEHPHYSPVSQGYPPHYAPEQSEYNTEYSDEYPSGWATYHVQTPQPSQSSQSAQQQPAQRMPDRRRYA”: “not soluble”.
For “MGSDKIHHHHHHMNQNVTSKVYPWQQTMWETLTTRFPNIGHGLLFYGKQGCGKHAFAKHFLAWVLCLNKQPQGACGECSSCQWLKSDTHPNYVHITTDEENKKQNAKIKIEKIRDLLPFVQQTGEGWRVVVIEPAEALNLASSNALLKTLEEPGERVVLILLADHYLKLPATIRSRLQHFALDRISYTEATSYLNEHLAETASVPAELLLGLSNDMPLQAVEIATSDWFAKRQSFLEDWTKVVNQKNMPLFYSAKWQKELNFSDFMMLLEYLLGDLICVKLNQPQKNIDLQFDQLAQNYNLESLFSLYEELQQSKRLVEQNVQTQLIIDQLFIKLMNV”, the “soluble on expression in E. coli” value was “not soluble”.
Consider “SQWIMHKTSTPEFCASCHSMSYPQQEWEGSSHFANAKGVRAQCSDCHIPKEGWHYVKAKFIALKDLWYEAQGKIENKEKYEAHRAEMAQRVWKDMKANDSETCRSCHSFDAMELSKQTKLAKQTHTEAQTNGQTCIDCHKGIVHFLPEVHGDQNTQKSSAVQGGTLSDGSAIFATEMVKATNDKGNEVRLMPYAELMQWKVDGDQIQGTLHGWQQVGAEAVVYQELGKRITLALMDEDARNHVQVLKIVHDAVTDSDWKEISVAVNVAKEKMTSDLTTLNQYGNQLNQTQCSGCHAAIGADHYTA”, for which the “soluble on expression in E. coli” value was “not soluble”.
The same measure for “MGSDKIHHHHHHVARLNAKQMEVFVAVMTHGSITAAGQRLNVSQPAVSRMIERFEQEAGFVAFERRRGKLVPTPEAEIFFAEVSQVYRGLDYLNEVAREIGTTRRGYLRVGVFPAFAEGWITERITRYVAGREELLTSLEPMSTDSVIEAVSRQTIDLGIALRASDREGLRSEEISSSEIVCILPKGHRLTGRPVLQPTDLSGEDFISMAAKVKARTSIDAVFDSSGVERRIRAETPWASTVCHMVAHGLGVGLVIRESAFEFAHLGYHIAAFKPRIDYRAYLITSTARPLSTAAKGFRDMLLLEFNQAKKAPRASKRWPT”: “not soluble”.
On to “MATYNGQGFIHDQLDSIRNQTLRPDYVLMRDDGSTDDTVKVVEDYIKEHRLDGWSITSNDKNLGWRLNFRQLLIDVLAYEVDYVFFSDQDDTWYHHKNKMQVDIMEERQDINLLSADIDIKKLSEEATIPNNFKFNGEETISKYPLDFSYHNYRQGWTFCLRKSFVDQVMTFYSDNLILSHDNLFAGVSGVIGSGYNLNRSVGEHKRHAENASGNILNMSSSYERHLQELYFVLSYYIILVPFLEKSSSSQLREAKAYLDFNQQRYKNAQNKDFVAILKQMMTKKRFYDSFSNRIRDLVFLLKDIKRS”, for which the “soluble on expression in E. coli” value was “not soluble”.
The same measure for “MGHHHHHHSHMGNCCWTQCFGLLRKEAGRLQRVGGGGGSKYFRTCSRGEHLTIEFENLVESDEGESPGSSHRPLTEEEIVDLRERHYDSIAEKQKDLDKKIQKEQERQRIVQQYHPSNNGEYQSSGPEDDFESCLRNMKSQYEVFRSSRLSSDATVLTPNTESSCDLMTKTKSTSGNDDSTSLDLEWEDEEGMNRMLPMRERSKTEEDILRAALKYSNKETGSNPTSASDDSNGLEWENDFVSAEMDDNGNSEYSGFVNPVLELSDSGIRHSDTDQQTR”: “soluble”.
With “MAKENPPIVFGPVLSRRFGKSLGVDLSPSKKQCNYNCIYCELGKAKPIERMEEVIKVETLINAIQNALNNLTTPIDVLTITANGEPTLYPHLLELIQSIKPFLKGVKTLILSNGSLFYEPKVQQALKEFDIVKFSLDAIDLKAFERVDKPYSKDINKILEGILRFSQIYQGQLVAEVLLIKGVNDSANNLKLIAAFLKQINIARVDLSTIDRPSSFKAPKLSEDELLKCSLFFEGLCVSLPKRSITQAKKLISCGIDELLALISRRPLSAEEAPLILDSNAFKHLETLLNHKQITIKKVGSLEFYCAFLEHHHHHH”, the “soluble on expression in E. coli” value was “not soluble”.
The same measure for “MVDQAQDTLRPNNRLSDMQATMEQTQAVENRVLERLNAGKTVRSFLITAVELLTEAVNLLVLQVFRKDDYAVKYAVEPLLDGDGPLGDLSVRLKLIYGLGVINRQEYEDAELLMALREELNHDGNEYAFTDDEILGPFGELHCVAALPPPPQFEPADSSLYAMQIQRYQQAVRSTMVLSLTELISKISLKKAFQK”: “not soluble”.
Then “MDEVNVIARITGVSRVRTFERDGREGRFISLDIMDATGSTTYTLWNNDVNLVEELGLKEGDAVKILWAQPRRRDDKVTLTHTSLTRVVPGLEHHHHHH”, with “not soluble”; and “MGSDKIHHHHHHMVQHLVDLLDTWLPSYQEDWVLAVLTQVEGSSYRKPGAIMLFHPMGKSLGMLSGGCLEADLRRHAQRAIQTQQVIQLTYDATDESDTSYQLGCGGIVNIMMVSLNKANNYLGLVSVHDALMRGDRGTYQLEIVADGVSSHQISGHFVEASSDAAPITLNTKTLKVTEQHKTLLQIPLRPPVHIGIFGGGLDAKPIAQMAQTMGWKVTIFDERTAYARTYDFPGCHIMKHPTPSISTDLLSGLDAAFIMSHNLQIDAKTLKTLQPLPLAYISLLGPVHRRDKVLDMAELSLKDFSGYFSAPAGLALGGELPGSVALSILSQCHGVLYNSKLTSLDSVML”, with “not soluble”; and “DPSVVLQMAEGPATYEQAPAGAPPANDPQARFVAKVLGETEDTWGAIFTQSLNRNYVPPKLVLFRGATPTACGTGQAAMGPFYCPGDSKVYIDLGFFDEMERRLNAPGDFAQAYVIAHEVGHHVQHLLGVSEQVDRLRQRNPAQANALSVRMELQADCFAGLWARRADQARNILESGDIEEGLNAASAIGDDTLQKKSQGYVVPDAFTHGSSAQRVRWFKRGLESGDLRQCDTF”, with “not soluble”.
